Reference: PMC3235549

Molecular target: Recombinant RNMT (human) (UniProt O43148)
Sequence of UniProt O43148 (O43148 whole entry): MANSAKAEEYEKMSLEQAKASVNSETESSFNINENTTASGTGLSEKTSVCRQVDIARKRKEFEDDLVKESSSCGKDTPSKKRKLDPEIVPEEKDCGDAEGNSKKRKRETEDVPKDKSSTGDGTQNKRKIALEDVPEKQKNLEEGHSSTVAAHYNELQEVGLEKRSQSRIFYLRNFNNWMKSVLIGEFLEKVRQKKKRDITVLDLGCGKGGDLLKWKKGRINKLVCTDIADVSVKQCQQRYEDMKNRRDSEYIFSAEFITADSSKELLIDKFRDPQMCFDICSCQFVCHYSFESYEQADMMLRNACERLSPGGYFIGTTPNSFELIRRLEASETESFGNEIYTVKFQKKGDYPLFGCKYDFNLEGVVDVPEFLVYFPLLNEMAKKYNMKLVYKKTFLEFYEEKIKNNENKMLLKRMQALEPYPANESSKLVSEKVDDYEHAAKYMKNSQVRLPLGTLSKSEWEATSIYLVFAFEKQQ

in vitro cap methyltransferase assay, 20 nM RNMT with 20 nM RAM (Figure 3D): > 4 fold
Substance: Recombinant RAM (from UniProt Q9BTL3 1-118) (natural protein)
